Experimental data as given in the nanobody polyreactivity screen of Harvey et al. (2022).

Assay: yeast display, Sf9 membrane polyspecificity reagent, FACS + sequencing; frameworks hold sequencing errors
How it was run: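 After 36–48 hours of galactose induction, yeast (Saccharomyces cerevisiae BJ5465) displaying a synthetic nanobody library were stained at 4 °C for 1 hour with 10% biotinylated, detergent-solubilized Sf9 membrane reagent. Streptavidin microbeads enriched the stained cells before FACS sorting into low and high (top ~1%) gates on anti-HA and streptavidin fluorescence. Each clone's polyreactivity label reflects its gate of origin.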

Row | Sequence | polyreactivity (PSR sort gate)
1 | QVQLVESGGGLVQAGGSLRLSCAASGSNFETNSMGGYRQAPGQERELVAVIWRGASTYYADSVKARFTISRDNAKNTVNLQMNSLKPDDTAVYYCNARPAYAGRYAYTRYYWGQGTQVTVSS | low polyreactivity
2 | QVQLVESGGGLVQAGGSLRLSCAASGSNFFLYAMGWYRQAPGKEREFVAAITGTADSTYYADSVKGRFTISRDDAKNTVYLQMNSLKPEDTAVYYCATDYWSSVKLDDYWGQGTQVTVSS | low polyreactivity
3 | QVQLVESGGGLVQAGGSLRLSCAASGSNFGEYAMGWYRQAPGKERELVAAITSGGNTYYADSVKGRFTISRDNAKNTVYLQMNSLKPEDTAVYYCAATRTRYWGGDYWGQGTQVTVSS | low polyreactivity
4 | QVQLVESGGGLVQAGGSLRLSCAASGSNFGYYAMAWYRQAPGKERELVAVITWNTGNTYYADSVKGRFTISRDNAKNTVYLQMNRLKPEDTAVYYCAADQTGWGDTYDYWGQGTEVTVSS | low polyreactivity
5 | QVQLVESGGGLVQAGGSLRLSCAASGSNFHPYAMGWYRPAPGKEREFVAAITFRGSTYYADSVKGRFTISRDNAKNTVYLQLNSLKPEDTAVYYCAARYNIFRRGSRNYDYWGQGTEVTVSS | high polyreactivity
6 | QVQLVESGGGLVQAGGSLRLSCAASGSNFINNAMGWYRQAPGKERELVAAISYSGGRTYYADSVKGRFTISRDNAKNTVYLQMNSLKPEDTAVYYCAADRSHRMNWGQGTQVTVSS | high polyreactivity
7 | QVQLVESGGGLVQAGGSLRLSCAASGSNFKRYTMGLYRQAPGKEWELVAAISTSSGSTYYADSVKGRFTISRDNANNSVYLQMNSLKPEDTAVYYCAAVRHRQTYPKYNYWGQGTQVTVSS | high polyreactivity
8 | QVQLVESGGGLVQAGGSLRLSCAASGSNFLDNAMGWYRQAPGKERELVAAITSSGGSTYYADSVKGRFTISRDNAKNTVYLQMNSLKPEDTAVYYCAADEWIVHEGYYSSYYYWGQGTQVTVSS | low polyreactivity
9 | QVQLVESGGGLVQAGGSLRLSCAASGSNFLRNAMGWYRQAPGKERELVAAIRWNAGSTYYADSVKGRFTISRDNAKNTVYLQMNSLKPEDTAVYFCAADGYYGRGYWIRTLKFDYWGQGTQVTVSS | high polyreactivity
10 | QVQLVESGGGLVQAGGSLRLSCAASGSNFLYSAMGWYRQAPGKERELVAVISWSGVSTYYADSVKGRFTISRDNAKNTVYLQMNSLKPEDTAVYYCNTGNHYIRTYGYWGQGTQVTVSS | low polyreactivity
11 | QVQLVESGGGLVQAGGSLRLSCAASGSNFPYYALGWYRQAPGNERELVATITYRGGSTNYADSVKGRFTISRDNAKNTVYLQMNSLKPEDTAVYYCADYGYVLASPYPYSFVKLGYWGQGTQVTVSS | low polyreactivity
12 | QVQLVESGGGLVQAGGSLRLSCAASGSNFSSNAMGWYRQAPGKERELFAAITWSGGSTYYADSVKGRFTISRDNAKKTVYFEMNSLKPEDTAGFYCNARRNVRQTFGYEYWGQGTQVTVSS | high polyreactivity
13 | QVQLVESGGGLVQAGGSLRLSCAASGSNFSYYAMGWYRQAPGKERELVAAITWRSGRTYYADSVKGRFTISRDNAKNTVYLQMNSLKPEDTAVYYCAAYWWRVKYHGYYYWGQGTQVTVSS | high polyreactivity
14 | QVQLVESGGGLVQAGGSLRLSCAASGSNFTFNALGWYRQAPGKERELVAAISKSGDRTYADSVKGRFTISRDNAKNTVYLQMNSLKPDDTAVYYCAADFSVSRYDYWGQGTQVTVSS | low polyreactivity
15 | QVQLVESGGGLVQAGGSLRLSCAASGSNFTLYAMGWYRPAPGKERELVAAISRRGDRTYYADSVKGRFTISRDNAKNTVYLQMNSLKPADTAVYSCNARRAPPLPYYYWGQGTQVTVSS | high polyreactivity
16 | QVQLVESGGGLVQAGGSLRLSCAASGSNFTSYAMGWYRQAPGKERELVAAITRGGRTYYADSVKGRFTISRDNAKNTVYLQMNSLKPEDTAVFYCNAPGYRGYEYWGQGTQVTVSS | high polyreactivity
17 | QVQLVESGGGLVQAGGSLRLSCAASGSNFTTYSMGWYRQATGKERELVAASTSGSSTNYADSVKGRFTISRDNAKNTVYLQMNSLKPEDTAVYYCAVDREWPCYYYAMSKMYYWGQGTQVTVSS | low polyreactivity
18 | QVQLVESGGGLVQAGGSLRLSCAASGSNFVGYAMGWYRQAPGKERELVAGITASGTNTYYADSVKGRFTISRDNAKNTVYLQMNSLKPEDTAVYYCAAESNRRFEGEYWGQGTQVTVSS | high polyreactivity
19 | QVQLVESGGGLVQAGGSLRLSCAASGSNFVLYAMGWYRQAPGKESELVAAISSSGGSTYADSVKGRFTISRDNAKNTVYLQMNSLKPEDTAVYYCARDVYLSDPPRDYDYWGQGTQVTVSS | low polyreactivity
20 | QVQLVESGGGLVQAGGSLRLSCAASGSNFVRNVMGWYRQAPGKERELVAGISWNGGSTFYADSVKGRFTISRDNAKNTVYLQMNCLKPEDTAVYYCATPYGRHGWFYLYDYWGQGTLVTVSS | low polyreactivity
21 | QVQLVESGGGLVQAGGSLRLSCAASGSNFVTNAMGWYRQAPGKERELVAAISVSGGSTYYADSVKGRFTFSRDNAKNTVYLQMNSLKPEDTEVYYCAADGFIGCRHIYEYWGQGTQVTVSS | low polyreactivity
22 | QVQLVESGGGLVQAGGSLRLSCAASGSNFVYNAMGWYRQAPGKERELVAAISGSGDSTYYADSVKGRFTISRDNAKNTVYLQMNSLKPEDTAVYYCAARMSTADFYKGDYWGQGTQVTVSS | low polyreactivity

Row | Sequence | polyreactivity (PSR sort gate)
23 | QVQLVESGGGLVQAGGSLRLSCAASGSNKQNAMGWYRQSPGKERELLARISKYGGSTYADSVKGRFTISRDNAKNTVYLQMNSLKPEDTAVYYCNAVKRDRNHHATKCEYAYWGQGTPVTVSS | low polyreactivity
24 | QVQLVESGGGLVQAGGSLRLSCAASGSNLSAYAMGWYRQAPGKERELVAAISWSGGSTYYADSVKGRFTISRDNAKNTVYFQMNSLKPEDTAVYYCATVNKKWRRYDYWGQGSQVTVSS | high polyreactivity
25 | QVQLVESGGGLVQAGGSLRLSCAASGSPVSRYALGWYRQAPGKERELVAAFSWGGNTYYADSVKGRFTISRDNAKNTVYLQMKSLKPEDTAVYYCNRYSKLYNTMDYWGQGTQVTVSS | high polyreactivity
26 | QVQLVESGGGLVQAGGSLRLSCAASGSRNAMGWYRQAPGKESEFVAAITWNGGSTYYADSVKGRFTISRDNAKNTVYLQMNSLKPEDTAVYYCNKREVFIYGTTYDYWRQGTQVTVSS | low polyreactivity
27 | QVQLVESGGGLVQAGGSLRLSCAASGSSFAKYAMGWYRQAPGKERELVATISWSGTSTYYADSVKGRFTISRDNAKNTVYLQMNSLKPEDTAVYYCDADTECVGVNHIYDYWGQGNQVTVSS | low polyreactivity
28 | QVQLVESGGGLVQAGGSLRLSCAASGSSFDIYVMGWYRQAPGKERELLAAISRVGNTSYADSVKGRFTISRDNGKNTVYLQMNKHETGIYRGHYCGAGLVGAGYITYNDYDYWGQGTQVSVSS | low polyreactivity
29 | QVQLVESGGGLVQAGGSLRLSCAASGSSFDPYAMGWYRQAPGKERELVATITYSGGRTYYADSVKGRFTISRDNAKNTVYLQMNSLKPEDTAVYYCAADWDPGYYVQYGYDYWGQGTQVTVSS | low polyreactivity
30 | QVQLVESGGGLVQAGGSLRLSCAASGSSFRIYAMGWYRQAPGKERELVAAISWSSGSTYYADSVKGRFTISRDNAKNTDYLPMNSLKPEDTAVYYCATYARRSGYYYWGQGTQVTVSS | high polyreactivity
31 | QVQLVESGGGLVQAGGSLRLSCAASGSSFRRYAMGWYRQAPGKERELVATIRSGGSTTYADSVKGRFTISRDNAKNTVYLQMNSLKPEDTAVYFFAAGTKPSYYYWGQGTQVTVSS | low polyreactivity
32 | QVQLVESGGGLVQAGGSLRLSCAASGSSFRSNDMGWYRQAPGKERELVARITSSVGSTYYADSVKGRFTISRDNAKNTVYLQMNSLKPEDTAVYYCAKRYYHYPYGYRDYDYWGQGTQVTVSS | low polyreactivity
33 | QVQLVESGGGLVQAGGSLRLSCAASGSSFSSYAMGWYRQAPGKERELVASISRRGGSTYYADSVKGRFTISRDNAKNTGYLQMNSLNPEDTAVYYCNAPYAGMGYWGQGTQVTVSS | low polyreactivity
34 | QVQLVESGGGLVQAGGSLRLSCAASGSSKLRLWDGIDRRLGQKGSWLPLFVLVVLRNYADSVKGRFTISSDNAKNTVYLQMNSLKPEDTAVYYCAATPIGSGGWGDYWGQGTQVTVSS | low polyreactivity
35 | QVQLVESGGGLVQAGGSLRLSCAASGSSLTYNAMGWYRQAPGKERELVAVISARGGRTYYADSVKGRFTISRDNAKNTVYLQMNSLKPEDTAVYYCAAVFYYSYYRITSGDYWGQGTQVTVSS | high polyreactivity
36 | QVQLVESGGGLVQAGGSLRLSCAASGSTCGTYAMGWYRQAPGKERELVATISLSGGSTYYADSVKGRFTISRDNAKNTVYLQMNSLKPEDTAVYYCTVKSSYSEYDYWGQGTQVTVSS | low polyreactivity
37 | QVQLVESGGGLVQAGGSLRLSCAASGSTCSRNAMGWYRQAPGKERELVAAINYSGGITYYADSVKGRFTISRDNAKNTVYLQMNSLKPEDTAVYYGAAVATNVPTHGRPSRRAYDYWGQGTQVTVSS | low polyreactivity
38 | QVQLVESGGGLVQAGGSLRLSCAASGSTCWSNAMGWYRQAPGKERELVAGISWSDGSTYADSVKGRFTISRDNAKNTVYLQMNSLKPEDTAVYYCAAADNYRGYTYEYDYWGQGTQVTVSS | low polyreactivity
39 | QVQLVESGGGLVQAGGSLRLSCAASGSTFAANAMGWYRQAPGKERELFAVIRRGGSTTYADSVKGRFTISRDNAKNTVYLQMNSLKPEDTEVYYCNARVTLGRPLFTYLVRYEYWGQGTQVTVSS | high polyreactivity
40 | QVQLVESGGGLVQAGGSLRLSCAASGSTFAANAMGWYRQAPGKERELVAAITSSGGSTYYADSVKGRFTISLDNEKNTVYLQMNSLKPEDTAVYYCNKDIERYVRIYDSWGQGTQVTVSS | low polyreactivity
41 | QVQLVESGGGLVQAGGSLRLSCAASGSTFADNAMGWYRQAPGKERELVATITDGGSTNYADSVKGRFTISRDNAKNTVYLQMNSLKPEDTAVYYCNADTHARWTGVKGTYSDYDYWGQGTQVTVSS | low polyreactivity
42 | QVQLVESGGGLVQAGGSLRLSCAASGSTFADYVMGWYRQAPGKERELVAAISRSGGSTYYADSEKGRFTISRDTAKNTVYLQTNSLKPEDTAVYYCAAVKARRYDYWGQGTQVTVSS | high polyreactivity
43 | QVQLVESGGGLVQAGGSLRLSCAASGSTFAFNAMGWYRHAPGKERELVATISQSGGSTYYADSVKGRFTFSRDNAKNTVYLQKNSLKPEDTSVYYCAKRYWSKWYGRYDYWRQGTQVTVSS | low polyreactivity
